# Results taken from paper PMC12041529.
# Test: western blot, co-transfected HEK293T
# Conditions: glycan lost; control: Flag-GPNMB (WT)
protein,measurement,value
glycoprotein nonmetastatic melanoma protein B (GPNMB): GPNMB296Q (protein) parent chain: MECLYYFLGFLLLAARLPLDAAKRFHDVLGNERPSAYMREHNQLNGWSSDENDWNEKLYPVWKRGDMRWKNSWKGGRVQAVLTSDSPALVGSNITFAVNLIFPRCQKEDANGNIVYEKNCRNEAGLSADPYVYNWTAWSEDSDGENGTGQSHHNVFPDGKPFPHHPGWRRWNFIYVFHTLGQYFQKLGRCSVRVSVNTANVTLGPQLMEVTVYRRHGRAYVPIAQVKDVYVVTDQIPVFVTMFQKNDRNSSDETFLKDLPIMFDVLIHDPSHFLNYSTINYKWSFGDNTGLFVSTNHTVNHTYVLNGTFSLNLTVKAAAPGPCPPPPPPPRPSKPTPSLATTLKSYDSNTPGPAGDNPLELSRIPDENCQINRYGHFQATITIVEGILEVNIIQMTDVLMPVPWPESSLIDFVVTCQGSIPTEVCTIISDPTCEITQNTVCSPVDVDEMCLLTVRRTFNGSGTYCVNLTLGDDTSLALTSTLISVPDRDPASPLRMANSALISVGCLAIFVTVISLLVYKKHKEYNPIENSPGNVVRSKGLSVFLNRAKAVFFPGNQEKDPLLKNQEFKGVS,other: SNAP29 protein level,decreases
